The results in this text go back to patent US20020160955A1.

The assay concerns the target T1, IGF-I F49A (G1S-A70V background) displayed on phage (human; bacteriophage M13).
T1 chain: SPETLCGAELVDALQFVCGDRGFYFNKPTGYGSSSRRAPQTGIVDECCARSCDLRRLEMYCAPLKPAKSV
Nature of the assay: competitive phage ELISA; IC50mut/IC50 G1S-A70V. The conditions noted are these: remark: other sources report otherwise.

B1: human IGFBP-1, P08833 26-259 (protein, UniProt P08833 26-259, looked up)
chain: APWQCAPCSAEKLALCPPVSASCSEVTRSAGCGCCPMCALPLGAACGVATARCARGLSCRALPGEQQPLHALTRGQGACVQESDASAPHAAEAGSPESPESTEITEEELLDNFHLMAPSEEDHSILWDAISTYDGSKALHVTNIKKWKEPCRIELYRVVESLAKAQETSGEEISKFYLPNCNKNGFYHSRQCETSMDGEAGLCWCVYPWNGKRIPGSPEIRGDPNCQIYFNVQN
In turn, B1 showed a relative IC50 greater than 100.
